Assay results: publication PMC5481743, “Cryptic indole hydroxylation by a non-canonical terpenoid cyclase parallels bacterial xenobiotic detoxification” (Nature Communications, 2017)

Assays:
XiaF = biological target: T1, XiaF (Streptomyces sp. HKI0576, UniProt I7IIA9); experiment: HPLC-HRMS biotransformation assay; assay type: biochemical; settings: 100 uM substrate, 500 uM NADH, 50 uM FAD, flavin reductase XiaP, pH 8.0, 28 °C
T1 construct: full-length (Met1-Leu397), N-terminal His-tag (pET-28b, thrombin-cleavable; pET-26b with MHHHHHH for crystals); from E. coli; homotetramer

[1] = biological target: His-tagged XiaF (44.5 kDa, from pXU520) (Streptomyces sp. HKI0576); experiment: SEC; HiLoad 16/600 Superdex 200 prep grade; 20 mM Tris-HCl pH 8.0, 100 mM NaCl; calibrated with Gel Filtration Calibration Kits
[2] = biological target: XiaF (recombinant, N-terminal histidine-tag, construct pET26b(+)-xiaF used for crystallization) (Streptomyces sp. HKI0576); experiment: crystal structure; hanging drop vapour diffusion at 20 °C; XiaF apo (5LVU), with FADH2 (5LVW), with FADH2 and glycerol (5MR6); molecular replacement
[3] = biological target: untagged XiaF (42.4 kDa, tag cleaved with thrombin) (Streptomyces sp. HKI0576); experiment: SEC; HiLoad 16/600 Superdex 200 prep grade; 20 mM Tris-HCl pH 8.0, 100 mM NaCl; calibrated with Gel Filtration Calibration Kits
[4] = biological target: the molecule itself; experiment: SEC; HiLoad 16/600 Superdex 200 prep grade; 100 mM NaH2PO4, 100 mM Na2HPO4, 2% glycerol, pH 7.0

T1 sequence (I7IIA9 entry or part of it): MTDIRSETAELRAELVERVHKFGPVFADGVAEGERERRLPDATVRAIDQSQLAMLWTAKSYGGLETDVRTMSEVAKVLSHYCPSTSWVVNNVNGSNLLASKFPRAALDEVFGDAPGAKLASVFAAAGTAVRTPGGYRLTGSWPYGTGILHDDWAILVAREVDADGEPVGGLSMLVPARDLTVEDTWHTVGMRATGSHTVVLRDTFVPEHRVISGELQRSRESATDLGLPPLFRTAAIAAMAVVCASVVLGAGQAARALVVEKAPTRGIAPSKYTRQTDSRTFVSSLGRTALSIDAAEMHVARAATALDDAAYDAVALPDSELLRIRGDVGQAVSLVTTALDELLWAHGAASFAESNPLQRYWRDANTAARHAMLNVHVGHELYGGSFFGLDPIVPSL

Question: With `C=C1CC[C@@H]2[C@](C)(CC[C@H](O)[C@@]2(C)C(=O)O)[C@H]1Cc1c[nH]c2ccccc12` [compound 2, indosespene] as the molecule, how does the HPLC-HRMS biotransformation assay (XiaF) read?
Answer: we found that XiaP substantially increases the performance of XiaF

Question: Which stoichiometry N [1] does the source give for “His-tagged XiaF (44.5 kDa, from pXU520) (enzyme)” here?
Answer: 4

Question: How did the stoichiometry N [2] turn out when “XiaF (recombinant, N-terminal histidine-tag, construct pET26b(+)-xiaF used for crystallization) (enzyme)” was run?
Answer: 4

Question: Which stoichiometry N [3] does the source give for “untagged XiaF (42.4 kDa, tag cleaved with thrombin) (enzyme)” here?
Answer: 4

B1: His-tagged XiaP (enzyme, Streptomyces sp. HKI0576)
chain: MIDRETFVELMSGVCAPVTVVTTATADGRPHGSTVSSFTSLSLDPPLASFALDRGSGLLPHLHQGARVGVNILAAHQHALAASFARRCPGTGSKFDGITWTTRAGLPHLPDSAGWTAGRVERHVPGGDHVLLVISVEEAHSTPAAPLVYLRRSFGTYSGLPAGG
notes: XiaP, NADH:flavin oxidoreductase of Streptomyces sp; HKI0576; also called flavin reductase XiaP; flavoenzyme-reductase; source: E. coli BL21-CodonPlus(DE3)-RP (pET28c-xiaP), purified (Ni-NTA, SEC)
Question: How did the “stoichiometry N” value [4] turn out when B1 was run?
Answer: 2
